From patent publication US20110142851A1 (EMERGENT PRODUCT DEVELOPMENT SEATTLE, published 2011)
Where two headings read alike, the source gives them in different places.

T1: recombinant human soluble IL6 receptor (human, UniProt P08887 20-358)
T1 construct: also called sIL6R; sIL-6R
T1 sequence (looked up): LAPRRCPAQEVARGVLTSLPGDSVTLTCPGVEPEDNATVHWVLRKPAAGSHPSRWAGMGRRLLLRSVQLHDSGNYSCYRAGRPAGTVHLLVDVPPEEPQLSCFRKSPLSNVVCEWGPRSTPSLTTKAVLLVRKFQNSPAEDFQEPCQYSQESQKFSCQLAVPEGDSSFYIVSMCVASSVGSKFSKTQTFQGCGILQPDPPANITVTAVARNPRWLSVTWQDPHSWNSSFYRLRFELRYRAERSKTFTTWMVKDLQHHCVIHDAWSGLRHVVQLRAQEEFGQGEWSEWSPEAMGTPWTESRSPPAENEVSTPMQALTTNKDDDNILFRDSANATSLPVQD

T2: hu HIL6 AFH monomer (human)
T2 chain: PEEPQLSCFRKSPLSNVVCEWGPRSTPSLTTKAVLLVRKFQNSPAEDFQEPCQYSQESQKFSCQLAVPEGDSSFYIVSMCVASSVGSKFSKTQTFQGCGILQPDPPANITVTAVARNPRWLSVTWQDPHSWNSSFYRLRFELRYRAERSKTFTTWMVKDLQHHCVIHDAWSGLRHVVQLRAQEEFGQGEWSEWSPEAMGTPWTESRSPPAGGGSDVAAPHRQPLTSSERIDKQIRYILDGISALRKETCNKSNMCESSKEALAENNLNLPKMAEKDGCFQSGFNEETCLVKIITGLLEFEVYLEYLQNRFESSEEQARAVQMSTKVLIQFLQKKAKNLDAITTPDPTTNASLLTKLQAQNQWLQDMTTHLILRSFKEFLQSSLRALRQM

T3: hu HIL6 Fc dimer (dimeric human HIL6/mouse IgG Fc fusion protein) (human)
T3 construct: also called human hyper-IL6 (IL6R-IL6-mIgG); dimeric HIL6
T3 chain: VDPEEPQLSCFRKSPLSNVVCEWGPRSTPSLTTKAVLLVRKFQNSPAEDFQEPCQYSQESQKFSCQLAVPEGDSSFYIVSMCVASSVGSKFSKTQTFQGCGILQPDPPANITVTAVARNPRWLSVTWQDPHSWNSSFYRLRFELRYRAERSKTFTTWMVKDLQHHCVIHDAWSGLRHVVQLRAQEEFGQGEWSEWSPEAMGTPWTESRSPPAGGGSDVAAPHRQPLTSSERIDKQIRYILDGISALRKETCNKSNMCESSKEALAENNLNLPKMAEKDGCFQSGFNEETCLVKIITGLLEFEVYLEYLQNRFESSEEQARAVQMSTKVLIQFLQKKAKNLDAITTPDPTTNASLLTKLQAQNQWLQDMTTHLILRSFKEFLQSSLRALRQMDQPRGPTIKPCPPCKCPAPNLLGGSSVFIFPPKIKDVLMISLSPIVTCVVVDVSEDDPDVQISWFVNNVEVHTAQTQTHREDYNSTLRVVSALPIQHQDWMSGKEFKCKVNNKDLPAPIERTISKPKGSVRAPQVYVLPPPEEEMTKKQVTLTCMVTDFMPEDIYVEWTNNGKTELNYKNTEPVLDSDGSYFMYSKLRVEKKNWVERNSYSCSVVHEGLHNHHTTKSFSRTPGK

T4: sIL6R Fc dimer (UniProt P08887 20-358, limits assumed)
T4 construct: not shown: Fc
T4 sequence (looked up): T1 sequence (looked up)

B1: TRU(X6T)-1019 (Fc fusion)
chain: EVQLLESGGGLVQPGGSLRLSCAASGFTFSWYLMHWVRQAPGKGLEWVSGIWPSGGHTLYADSVKGRFTISRDNSKNTLYLQMNSLRAEDTAVYYCAREPLLWFGELSYNWFDPWGQGTLVTVSSGGGGSGGGGSGGGGSQDIQMTQSPSSVSASVGDRVTITCRASQGISSWLAWYQQKPGKAPKLLIYAASSLQSGVPSRFSGSGSGTDFTLTISSLQPEDFATYYCQQANSFPLTFGGGTKVEIKTGEPKSSDKTHTCPPCPAPEAAGAPSVFLFPPKPKDTLMISRTPEVTCVVVDVSHEDPEVKFNWYVDGVEVHNAKTKPREEQYNSTYRVVSVLTVLHQDWLNGKAYACAVSNKALPAPIEKTISKAKGQPREPQVYTLPPSRDELTKNQVSLTCLVKGFYPSDIAVEWESNGQPENNYKTTPPVLDSDGSFFLYSKLTVDKSRWQQGNVFSCSVMHEALHNHYTQKSLSLSPGQRHNNSSLNTRTQKARHSPNSLPAQVAFTPYAPEPGSTCRLREYYDQTAQMCCSKCSPGQHAKVFCTKTSDTVCDSCEDSTYTQLWNWVPECLSCGSRCSSDQVETQACTREQNRICTCRPGWYCALSKQEGCRLCAPLRKCRPGFGVARPGTETSDVVCKPCAPGTFSNTTSSTDICRPHQICNVVAIPGNASMDAVCTSTSPTRSMAPGAVHLPQPVSTRSQHTQPTPEPSTAPSTSFLLPMGPSPPAEGSTGD
B2: TRU(XT6)-1058 (Fc fusion)
chain: LPAQVAFTPYAPEPGSTCRLREYYDQTAQMCCSKCSPGQHAKVFCTKTSDTVCDSCEDSTYTQLWNWVPECLSCGSRCSSDQVETQACTREQNRICTCRPGWYCALSKQEGCRLCAPLRKCRPGFGVARPGTETSDVVCKPCAPGTFSNTTSSTDICRPHQICNVVAIPGNASMDAVCTSTSPTRSMAPGAVHLPQPVSTRSQHTQPTPEPSTAPSTSFLLPMGPSPPAEGSTGDTGEPKSSDKTHTCPPCPAPEAAGAPSVFLFPPKPKDTLMISRTPEVTCVVVDVSHEDPEVKFNWYVDGVEVHNAKTKPREEQYNSTYRVVSVLTVLHQDWLNGKAYACAVSNKALPAPIEKTISKAKGQPREPQVYTLPPSRDELTKNQVSLTCLVKGFYPSDIAVEWESNGQPENNYKTTPPVLDSDGSFFLYSKLTVDKSRWQQGNVFSCSVMHEALHNHYTQKSLSLSPGQRHNNSSLNTRTQKARHSPNSEVQLLESGGGLVQPGGSLRLSCAASGFTFSMYTMHWVRQAPGKGLEWVSWISPSGGWTKYADSVKGRFTISRDNSKNTLYLQMNSLRAEDTAVYYCAVSPWGGPFDYWGQGTLVTVSSGGGGSGGGGSGGGGSQDIQMTQSPSTLSASVGDRVTITCRASQSISSWLAWYQQKPGKAPKLLIYKASTLESGVPSRFSAGGSGTEFTLTISSLQPDDFGTYYCQQYNSYSLTFGGGTKVEII
notes: Xceptor, TNFRSF1B ectodomain N-terminal, anti-IL6xR domain C-terminal
B3: TRU(XT6)-1019 (Fc fusion)
chain: LPAQVAFTPYAPEPGSTCRLREYYDQTAQMCCSKCSPGQHAKVFCTKTSDTVCDSCEDSTYTQLWNWVPECLSCGSRCSSDQVETQACTREQNRICTCRPGWYCALSKQEGCRLCAPLRKCRPGFGVARPGTETSDVVCKPCAPGTFSNTTSSTDICRPHQICNVVAIPGNASMDAVCTSTSPTRSMAPGAVHLPQPVSTRSQHTQPTPEPSTAPSTSFLLPMGPSPPAEGSTGDTGEPKSSDKTHTCPPCPAPEAAGAPSVFLFPPKPKDTLMISRTPEVTCVVVDVSHEDPEVKFNWYVDGVEVHNAKTKPREEQYNSTYRVVSVLTVLHQDWLNGKAYACAVSNKALPAPIEKTISKAKGQPREPQVYTLPPSRDELTKNQVSLTCLVKGFYPSDIAVEWESNGQPENNYKTTPPVLDSDGSFFLYSKLTVDKSRWQQGNVFSCSVMHEALHNHYTQKSLSLSPGQRHNNSSLNTRTQKARHSPNSEVQLLESGGGLVQPGGSLRLSCAASGFTFSWYLMHWVRQAPGKGLEWVSGIWPSGGHTLYADSVKGRFTISRDNSKNTLYLQMNSLRAEDTAVYYCAREPLLWFGELSYNWFDPWGQGTLVTVSSGGGGSGGGGSGGGGSQDIQMTQSPSSVSASVGDRVTITCRASQGISSWLAWYQQKPGKAPKLLIYAASSLQSGVPSRFSGSGSGTDFTLTISSLQPEDFATYYCQQANSFPLTFGGGTKVEIK
notes: as for B2
B4: TRU(S6)-1029 (Fc fusion)
chain: EVQLLESGGGLVQPGGSLRLSCAASGFTFSSYWMHWVRQAPGKGLEWVSSIYPSGGSTEYADSVKGRFTISRDNSKNTLYLQMNSLRAEDTAVYYCAKGIWFDPWGQGTLVTVSSGGGGSGGGGSGGGGSQDIQMTQSPATLSASVGDRVTITCRSSQRISGYLNWYQQQPGKAPKLLIYAASTLQSGVPSRISGSGSGTDFSLIISSLQPEDVATYYCQQSYSPPFTFGGGTKVEIKTGEPKSSDKTHTCPPCPAPEAAGAPSVFLFPPKPKDTLMISRTPEVTCVVVDVSHEDPEVKFNWYVDGVEVHNAKTKPREEQYNSTYRVVSVLTVLHQDWLNGKAYACAVSNKALPAPIEKTISKAKGQPREPQVYTLPPSRDELTKNQVSLTCLVKGFYPSDIAVEWESNGQPENNYKTTPPVLDSDGSFFLYSKLTVDKSRWQQGNVFSCSVMHEALHNHYTQKSLSLSPGK
notes: SMIP (scFv - linker - CH2CH3)
B5: TRU(S6)-1025 (Fc fusion)
chain: EVQLLESGGGLVQPGGSLRLSCAASGFTFSHYGMHWVRQAPGKGLEWVSSIYPGMTQYADSVKGRFTISRDNSKNTLYLQMNSLRAEDTAVYYCARDRGSGIDAFDIWGQGTMVTVSSGGGGSGGGGSGGGGSQSELTQPPSVSVSPGQTATVSCSGEKLGDRYAWWYQQKAGQSPVLVIYQDTKRPSGVPDRFSGSNSGTSASLVISGPQSEDEADYYCAAWDDSLKGVVFGGGSKLTVLTGEPKSSDKTHTCPPCPAPEAAGAPSVFLFPPKPKDTLMISRTPEVTCVVVDVSHEDPEVKFNWYVDGVEVHNAKTKPREEQYNSTYRVVSVLTVLHQDWLNGKAYACAVSNKALPAPIEKTISKAKGQPREPQVYTLPPSRDELTKNQVSLTCLVKGFYPSDIAVEWESNGQPENNYKTTPPVLDSDGSFFLYSKLTVDKSRWQQGNVFSCSVMHEALHNHYTQKSLSLSPGK
notes: SMIP (scFv - linker - CH2CH3)

Key:
recombinant human TNF-α = target: T5, recombinant human TNF-α (human, UniProt P01375 77-233); test: ELISA, Xceptor captured by anti-human Fc
T5 construct: also called rhTNFα

[1] = target: T1, recombinant human soluble IL6 receptor; test: ELISA, Xceptor captured by anti-human Fc
hu HIL6 AFH monomer [2] = target: T2, hu HIL6 AFH monomer; test: SPR Biacore T100, binder captured by anti-human Fc
[3] = target: T3, hu HIL6 Fc dimer (dimeric human …); test: SPR Biacore T100, binder captured by anti-human Fc
recombinant human IL6 [4] = target: T6, recombinant human IL6 (human, UniProt P05231 30-212); test: SPR Biacore T100, binder captured by anti-human Fc
T6 construct: also called rhIL6; IL6 monomer

sIL6R Fc dimer [5] = target: T4, sIL6R Fc dimer; test: SPR Biacore T100, binder captured by anti-human Fc
hu HIL6 AFH monomer [6] = target: T2, hu HIL6 AFH monomer; test: SPR Biacore T100, binder captured by anti-human Fc
Description: (§1) Binding affinities and kinetic rate constants of interaction of hyper-IL6 (HIL6; monomer or dimer), and its components IL6 and sIL6R, with different anti-HIL6 binding domains in scFv, SMIP, Xceptor and reverse Xceptor formats were determined using a Biacore® T100 instrument (GE Healthcare, Piscataway, N.J.).
(§2) Anti-HIL6 SMIPS, Xceptors, and reverse Xceptors were captured by a monoclonal mouse anti-human Fc, which was covalently conjugated to a carboxylmethyl dextran (CM4) surface via amines using N-ethyl-N′-(3-dimethylaminopropyl)-carbodiimide hydrochloride and N-hydroxysuccinimide. The unoccupied sites of the activated surface were blocked by ethanolamine. […] In every cycle, three different HIL6 binders were captured on flow cells 2, 3 and 4, while flow cell 1 was used as the reference cell. For each cycle, a single concentration of a single HIL6-related molecule was injected for 150 seconds at 35 microliters per minute, and then allowed to dissociate for 300 seconds. At the end of the cycle, the surface was regenerated gently using 3M MgCl₂, which dissociates protein bound to anti-hFc capture antibody. Multiple cycles were performed to study binding of monomeric or dimeric HIL6 at different concentrations, in the range of 0-100 nM, for each set of three HIL6 binders captured. […] The experiment was performed at 25° C. Signal associated with binding to the reference cell was used to subtract for bulk refractive changes and blank (buffer-only) injections were used to correct for drift and system noise. The kinetic parameters and affinities were determined using BIAevaluation software. Anti-HIL6 scFv molecules were analyzed in the reverse orientation using a dimeric human HIL6/mouse IgG Fc fusion protein captured by an immobilized rabbit polyclonal anti-mouse IgG Fc antibody on the surface and injecting different concentrations of scFv over the surface. For the HIL6 components IL6 (eBioscience, catalog no. 14-8069) and sIL6R, a single 100 nM injection was performed to obtain a qualitative assessment of binding.

sIL6R Fc dimer [7] = target: T4, sIL6R Fc dimer; test: SPR Biacore T100, binder captured by anti-human Fc; remark: listed apart in the source
Description: as §1, §2

[8] = target: T3, hu HIL6 Fc dimer (dimeric human …); test: SPR Biacore T100, binder captured by anti-human Fc
Description: as §1, §2

recombinant human IL6 [9] = target: T6, recombinant human IL6; test: SPR Biacore T100, binder captured by anti-human Fc; remark: listed apart in the source
Description: as §1, §2

T5 sequence (P01375 77-233 limits assumed): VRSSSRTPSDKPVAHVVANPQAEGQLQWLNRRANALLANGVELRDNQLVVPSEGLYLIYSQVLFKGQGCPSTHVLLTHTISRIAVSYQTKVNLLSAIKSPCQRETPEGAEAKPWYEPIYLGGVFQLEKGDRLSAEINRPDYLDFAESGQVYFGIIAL

Binder	binding result (recombinant human TNF-α)	binding result [1]	Kd (hu HIL6 AFH monomer [2]) [nM]	Kd [3] [nM]	Kd (recombinant human IL6 [4]) [nM]	binding result (sIL6R Fc dimer [5])	Kd (hu HIL6 AFH monomer [6]) [nM]	binding result (sIL6R Fc dimer [7])	Kd [8] [nM]	binding result (recombinant human IL6 [9])
B1	binds	no binding (tested: 75 pM sIL-6R)	1.9	300	0.57	no binding (tested: 100 nM)				
B2	binds	no binding (tested: 75 pM sIL-6R)								
B3	binds	no binding (tested: 75 pM sIL-6R)	17	5.7	1	no binding (tested: 100 nM)				
B4							180	no binding (tested: 100 nM)		
B5							2.6		4.4	no binding (tested: 100 nM)
